Measured values as given in article doi:10.1101/151191 (bioRxiv, 2017).

Assays:
[1] = target: the molecule itself; test: SEC
[2] = target: the molecule itself; test: AUC

B1: α-mDelNT (N-terminal half of mouse α-Delphilin) (domain or fragment, UniProt Q0QWG9-2 1-558, looked up)
chain: MSCLGIFIPKKHRARFDEVVSQGLLGKLCRARRAQGAQRLRRSRSEERPERLLVSTRASAAPRRPDEPPPRKATSLLGGRTGPGGPRRTVRVYKGNKSFGFTLRGHGPVWIESVLPGSPAENASLKSGDRILFLNGLDMRNCSHDKVVSMLQGSGAMPTLVVEEGPVPFASDSDSLDSPTRASALTSLQWVADILPSSIRVQGRTFSQQLDHLLTPPERYGVCRALERFFQHRNIDTLIVDVYPVLDTPAKQVLWQFLYQLLTYEEQELCQEKIACFLGYTAMTEPESSLDLEPESTPEPTPEPQPRSSLRASSMCRRSLRSQGLETSLSCGPGDCPEMPLPLIPGERQAGDGTSLPETPNPKMMSAVYAELESRLNSSFKGKIGTMSKSRASPPVPSLVGTSGPRTLSGVSWPSDRLLPSPCYDPLCSGGLASPSSSESHPYASLDSSRAPSPQPGLGSIHADSPPSPDPIRPPSRRKLFAFSRPVRSRDTDRFLDALSEQLGPRLSIVDDFLTPENDYEEMSFHDDQGSFVTNERSSASECVSSSEEGSSLTYSSI
stoichiometry N [1]: 7 subunits
stoichiometry N [2]: 6 subunits
